Laboratory results from a protein production outcome set (Wang et al. 2014).

Assay: label from the status in PepcDB records

Sequence	protein production
METAITRMLGIRYPIVAAPMFLVSNAPLLQAVAEAGGIGVIPSLNFRTHQAFREFLESFPEGVPFGVNLILKGNPRLEEDLEAVVERRVPLVVTSLGDPTRVVERVKAYGGVVWCDVVGLRHGRKAVEAGADALVAVACGAGGHAGRVSPFVLGPWLREELGVPVLIAGGIATGRQVLAALALGDGVYIGTRFIATLESGAPLEYKEALLRAQPEDIEYTPEVTGVPANFLRESLERFRQGGGKAWKEVYSAGHGVAFIREIPSAKEVVARLVEEYRAAKAGLP	failed
MTAETPSLTSPQAQRILRLYHLYRLTIGVVLVLLISSSLETELLQLANPNLFRSGCWLYLVFNILVVVLLERPSRQAQLFGLAMTDAIMLSGLFYAAGGPSSGIGNLLIASVAISNVLLRGRIGLLIAAVSAIGIIYLTFYISFGTPSVSNDYVQAGSLGALCFAAALLVQALTARLQVSEGLAEQRAADVDSLEELNALILQRMRTGIVVLDARRQVVLANQGALTLLGHERLVGQVIDAYSPQLVERLRQWLINPIMVPRSITTSSIGPVLQPSFAALNRGDQRQTLIFLEDLSQIAHQAQQLKLAALGRLTAGIAHEIRNPLGAVSHAAQLLNESEDLSAPDRRLGQIIHDQSQRIDRVIENVLQLSRRREAQPELLDLKVWLENFVSDFRSSAAADQSIHVQISSGMLTTRMDAGQLTQIITNLVQNGLRYSRRNHPSAQVWLNLHHDRESDLPILEVLDDGPGVSEQHLSKIFEPFFTTESKGTGLGLYLSRELCESNQAHLEYIPRPHDGGSCLRITFAHPFKTS	failed
MKLKNILIVVDNIEESIHFYNELFGLNVISRQEGNVIMSEGLVLQDAGIWKESMQIQTIPYNNMTELYFEDNDIEGVVKKLESGRYEVRYATALTELDGGQKLVRFYDQSGNLIEVRTPWDKFVNRE	failed
SKVWKYFGFDTNAEGCILQWKKIYCRICMAQIAYSGNTSNLSYHLEKNHPEEFCEFVKSN	not failed
MQWANLALFLTEAIVYFSVMTAFLHYRHILGIGVFLTALGVMHFLETYLAAVFYVQLPFGVASPGSSILFAGKLMMILMLYMREDAAVVRQPIYGLFLGNILTVIMAQIIRFHQTVAIVPGQSVSTGFLDEMGILMVWGTSLLYIDAIAIILFYEKLGRYLQRHIVLRFAICGVVILSFDQAGFYGALRLLFNAPVDVFYDGWKAKMAAVGIYSLLFATYLWLTAAKGRFLTRRSVADVFNDLTFRERYEELLSRSGRDMLTGVSDRARMELDAPSLVVECLEKRRPVSVLIVDIDHFKTVNDTFGHLQGDEILREFAAVLKRAVQPLGHLYRFGGEEFVALLPAMTHETALAFSASLRVAVLAELQRPDGSPLTVSIGVATAFEDGQLFRALLSEADAWLYAAKNNGRDQVHGRHGMWVG	failed
MISGISGILCVVLVSKGKISNYFFGLIFAYTYFYVAWGSNFLGEMNTVLYVYLPSQFIGYFMWKANMQNSDGGESVIAKALTVKGWMTLIVVTTVGTLLFVQALQAAGGSSTGLDGLTTIITVAAQILMILPLS	failed
MPYFYVFLLLLTSLLWGGNFVVGKSLVDHASPMTLTNLRWMIAIVCLLPMVWFKEKKILPPRTAILPLILMGISGVALFNIFQFLALEKTSATNVGLISTLNAISIALFSVLFLKEKVNTLQILSMILSFFGVILVLLKGDFSLLFSLHFNSGDLWMIAAVCIWGIYSVCSKWATKTTTPLMATLYSGIFGVILLLPFNIGSFTVSNINTSFITSLLYTGLISTVLCMVFWNIGVQKLGATTSGIFLNFNPIFTAILAFIFLGEELTWIQILGTIVVVTGCYLFSHFKTVAVQPVRPLMRKHS	failed
MPKEQPLYLQIVDDLEVKIKKSMTENDKLLSERELSDLYGVSRITIRLTLKELELRDLIYKKQGKGTYVSGIKEPATDLSSTYSFTEQMKKMGKTPKTEILSFEQYQVTPYLSGLLELDPDTEVFELERLRIADDMPLMFERSYIPAQPFQGLSIADLKRKALYDIFAKDYQETIRLAEEEFYASIALDYEAGLLGIKKGDPVLHIIRKTYNDKNILIELTFSIARADQFRYRVQHHPNG	failed
QTQALFMNTRRAVFKERALRQALGEMFDFEWTNRALFSNSYLRSRSYYPNSEFAASGVPEGQEWLYLSPYRKQLPAQLFKQPFSLPTTEGRGIPRETLRHALGLLADAGWKLSGDRLLNKKGEPLRFEILLVNPSLERILQPYRENLASIGIDARLRTVDRAQYKQRLDQFDYDMILMTLPQTLSPGLEQWQYFHSSQVKVKGSKNYAGIANPVVDAMLNRLLGAHSRDEQVAAARALDRTLLWQYYSIPNWYLN	failed
MNALKGRDILALGFMTFALFVGAGNIIFPPIVGLQSGPHVWLAALGFLITAVGLPVITVIALAKVGGSVDALSHPIGRYAGGLLAAVCYLAVGPLFAIPRTATVSFEVGVVPLLGESGTALFVYSLAYFLLALAISLYPGRLLDTVGRFLAPLKILALAILGVAAFLWPAGPIGTAQPEYTQAAFSQGFVNGYLTMDTLAALVFGIVIVNAIRSRGVQSPRLITRYAIVAGLIAGVGLVLVYVSLFRLGAGSHAIAADASNGAAVLHAYVQHTFGSLGSSFLAGLIALACLVTAVGLTCACAEYFCQRLPLSYRSLVIILAGFSFIVSNLGLTKLIQVSIPVLTAIYPPCIVLVALSFCIGLWHSATRILAPVMLVSLAFGVLDALKAAGLGQDFPQWLLHLPLAEQGLAWLIPSVATLAACSLVDRLLGKPAQVAA	failed
MIIRIKHYGEVKIEDSKNLLLNLIENRIGIDNICNGKGTCGKCKVRFRQGVPEATSADLRYLSVEELEEGVRLACQVKPQKGMEIDVTLSNSFDRKNTVLRRDDQVALDSGLSGISLTIPQPSLEDERGDWDRIIDEYRKVMPEQGLALPSLGVLERLPGTLRKLDYRITAVTWQNRVIDVQPGHDTALHGLAVDIGTTSVAVALIDLKTGEVLGSVSAENGQTAFGGDVISRIAYAGEGLKNRLQLTAAVRSTINTLIDELVLQHEIVRNSIYKMTIVANTTMSHLFLGLDVSNLAVSPYVSVYNQALEFSAKELGLGSNPEAVVQILPNIGSFVGGDTVGALLGAPEVLTQGNHLLLDLGTNCELVLKTEKMMLACSTAAGPAFEGAGIFHGMRAKPGAIEGIRIHEEGVELRVIGDEEALGICGSGLIDGIAQMRQAGIINRKGAFVDPDHKDCSLSDELKSRIRKKEDYWEFVFAFGRQHKKDISLGQRDIEALQLAKGAVCAGIKTLVSLAGISLRDLDSIVMAGTFATYLKKESILSIGLTPHTDPEKIKMAGNAAHLGAIRTLLNQGTFAEGAELARRIQHIELGGDKTFTNFFMRSMYLEPTD	failed
MRLSISLGESPCISSLKVRGFTASPQTPNLSISVIVTAFNRREYLRYALLSLKNQEADSFEVVVSKNFSDRVTDKFCSENGFINVTTDSSRSGERVYDALRSSHGDFILFLDDDDIFRRTKISRVSDVISKRNVAFYRNAIFPVTVDGVIATHYQPQMHDPLYLILERVSDVRLLHRHACDFNSSSMGISRSMLDSHASDLRKINLAVDTFYFALAASSRMPLFCDSMIESIYRIMPSSTSRDLRDFYLFSRFERSFLRRYVPDLERIAEIVEGSPAKPVIGRMLSLYKILQYVFEEDRVNLKPSPLDRVRFLLERPFPYSLLYSRIFRDAAMRSEFRRENRIVYGNADRRRRLEHHHHHH	not failed
MKKIICYLSLSALSLSSFSQTQIANGDFENWSSSEYCSALDSLDNFLTGQAFFYLNAKNETDAIECPALPFTYKTTDKQSGSYALKLGPQYFDDKAYYNFVTLGEAAYFEEEGSVASFGIPFTGRPSKLTGYYKCTAGAVGDELQIKVFGSNFTSEDPLFYGVFTASENQPMYEKFEIDLVYDPTDPNNAVYLSMLITVGNLNDGSIDENTVAFIDNLVFEYDATAATSYTPVSPIHVFASNKTISFSEHVSDIHVVDMVGANNIQEAASTKTLHAETLNSGLYIVTYNYKGNYFSKKVVIE	failed
MKAGLIMRHDVMSILHAFCMIAENHSFTRAAAQLHISTSALSQNMRQLEDELGVKLLNRTTRRVGLTEAGHAFLASIRPALAHIDEAMEHARQSRDIPGGTLRLTVPRTAATLLLQPNLAGFMRDYPDIRLDIDVNDGFVDLINERFDAGIRFGDAVQLDMNVVPLGDVLRPAIVASPAYLARFGTPLHPQELINHRCLCHRFTRESGLYRWEFVHGAQRLEITPEAALMVNDKALRLSAARDGAGLTYVFEQDVHEDLQDGRLCSVLEEWLPAADRFYLYYPGRAHMAPKLRVFIDYFCHKAILPSQQSHHR	failed
MEVHYMTKIKEIKKVLQQEDADAAWITTPLNIFYFTGYRSEPHERLFALLIPSNEEPVLFCPKMEVEEVKQSPFKGKIIGYLDTENPFDKYSKTFSKMLIESEHLTVKRQRELTKAFNIEHYQDVDQSIKDLRNIK	failed
MSLARVLLNIHGTGDTVVLALCDEDLLGVELKYKGRTLHISEPFYSGKSMEPDRAAKKIREAVQEYEDEKTVAINALGELACSVVVDAGLAREDEIGELGGVPHVQMYILPREPFLEGHHHHHH	not failed
MCLSIPSQVVAVDNERQSVTVDTLGVRRDVSSHLMTEPLAIGDYVLIHIGFVMNKIDRNDALQSLELYQEIVSKLENETTH	not failed
MKEQSITKGFAILSIASIVAKLLSLIYVPFLTRIVGSVGMGIYGKTYDIFVFVYALTNVGLQTAISKYVSELDAVGNYKDALRAFKISRAFLLVVGTIFTIVLMLSANFIASMSQTPQMVYPIIFLAPTIMITTVLVTYKGYFQGRSQATPIAIATVIEQVANVFLSLLCAYFLIKKSVSLGVAGGTVGSSAGALMAVLYLIYIYNIYGVEKEAKRKQEPGVRRITGKKIARTLFKYGLPITLSTGLQNLGNIIDMLTVSNRLVDAANFSQSDANALYGYFSTRYKILINVPMVFITSLGYMALPAISRAYALKDKKEIKSKINFSMRVTYLLSIPSAFGLALLSENIYRYIFADSNGYKMMVIGAAMIPLTAIVLMQNVILQSVSQFYYVLFTLALSIVVKFTLNMTLVANPDINIYGAVISGMVAFVISLVLNHFRMKKTLKMKISMLKYALKPLLASIYMGIGIILSKYVISLFIDFDKLSLILGIAILLVIIAIGAFMYLHAIIILGGIKKEDIEEISPKLLRVMPRFLRKNIK	failed
MSQWTTVCKLDDILPGTGVCALVEQQQIAVFRPRNDEQVYAISNIDPFAQASVLSRGIVAEHQDDLWVASPLKKQHFRLYDGFCLEDGAYSVAAYDTQVTNGNVQISIADSDVAVDNSQPLPLEHHHHHH	not failed
DDANVVRDRDLEVDTTLKSLSQQIENIRSPEGSRKNPARTCRDLKMCHSDWKSGEYWIDPNQGCNLDAIKVFCNMETGETCVYPTQPSVAQKNWYISKNPKDKRHVWFGESMTDGFQFEYGGQGSDPADVAIQLTFLRLMSTEASQNITYHCKNSVAYMDQQTGNLKKALLLKGSNEIEIRAEGNSRFTYSVTVDGCTSHTGAWGKTVIEYKTTKSSRLPIIDVAPLDVGAPDQEFGFDVGPVCFL	failed
MTLTLNRQLLTSRQILVAFSGGLDSTVLLHQLVQWRTENPGVALRAIHVHHGLSANADAWVTHCENVCQQWQVPLVVERVQLAQEGLGIEAQARQARYQAFARTLLPGEVLVTAQHLDDQCETFLLALKRGSGPAGLSAMAEVSEFAGTRLIRPLLARTRGELVQWARQYDLRWIEDESNQDDSYDRNFLRLRVVPLLQQRWPHFAEATARSAALCAEQESLLDELLADDLAHCQSPQGTLQIVPMLAMSDARRAAIIRRWLAGQNAPMPSRDALVRIWQEVALAREDASPCLRLGAFEIRRYQSQLWWIKSVTGQSENIVPWQTWLQPLELPAGLGSVQLNAGGDIRPPRADEAVSVRFKAPGLLHIVGRNGGRKLKKIWQELGVPPWLRDTTPLLFYGETLIAAAGVFVTQEGVAEGENGVSFVWQKTLS	not failed
MAELDIGQHCQVQHCRQRDFLPFVCDGCSGIFCLEHRSKDSHGCSEVNVVKERPKTDEHKSY	not failed
